Positions count from the first letter of the chain named.

Consider three molecules from patent US20220204611A1 (Amgen, published 2022).

Experiment [1] concerns the target T1, recombinant soluble human TREM2 protein (human TREM2 ECD-FlagHis) (human, UniProt Q9NZC2 19-174).
T1 sequence: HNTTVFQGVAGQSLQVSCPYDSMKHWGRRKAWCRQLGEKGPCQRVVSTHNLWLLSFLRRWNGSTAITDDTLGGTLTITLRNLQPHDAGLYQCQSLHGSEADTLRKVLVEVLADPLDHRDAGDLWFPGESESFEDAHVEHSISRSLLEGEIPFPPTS
Briefly: Octet BLI binning; competitor: load Ab 16B8. How it is done: (§1) Each of sixteen different anti-TREM2 antibodies produced from hybridomas were quantitated and loaded onto one of the anti-human Fc sensors at 5 μg/mL for 2 minutes (“Load Antibody”). The sensor was then blocked with 100 μg/mL of an irrelevant human IgG2 antibody for 5 minutes. […] Next, each of the sixteen different anti-TREM2 antibodies (“Sandwich Antibody”) was added to the sensor at 5 μg/mL and allowed to bind for 5 minutes. All assay buffers contained 10 mM Tris (pH 7.6), 0.1% Triton X-100, 150 mM NaCl, 1 mM CaCl₂, and 1 mg/mL BSA. The assay was conducted at 25° C. Experimental kinetic results were fit to a 1:1 binding model.
(§2) However, if addition of the sandwich antibody produces a binding event, then the sandwich antibody binds to a different epitope on human TREM2 than the load antibody and the two antibodies are categorized into different epitope bins.

Experiment [2] addresses T1, recombinant soluble human TREM2 protein …. Briefly: Octet BLI binning; competitor: load Ab 24A10. As for the experimental part: as §1, §2
For experiment [3] the target is unchanged. Briefly: Octet BLI binning; competitor: load Ab 13E7. How it is done: as §1, §2
Experiment [4] has as its target T2, human TREM2 on cells (human, UniProt Q9NZC2 19-230).
T2 sequence: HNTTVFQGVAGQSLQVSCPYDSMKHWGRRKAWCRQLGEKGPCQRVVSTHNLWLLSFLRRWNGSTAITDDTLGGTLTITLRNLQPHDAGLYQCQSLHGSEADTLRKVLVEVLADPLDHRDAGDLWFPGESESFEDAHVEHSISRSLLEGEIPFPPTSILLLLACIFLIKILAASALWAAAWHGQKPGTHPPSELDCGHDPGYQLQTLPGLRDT
The experiment can be described thus: cell-based or functional assay.

Experiment [5] has as its target T3, soluble human TREM2 protein (TREM2 ECD-huIgG1 Fc fusion protein) (human, UniProt Q9NZC2 19-174, biotinylated).
T3 construct: also called biotinylated soluble human TREM2 protein
T3 sequence: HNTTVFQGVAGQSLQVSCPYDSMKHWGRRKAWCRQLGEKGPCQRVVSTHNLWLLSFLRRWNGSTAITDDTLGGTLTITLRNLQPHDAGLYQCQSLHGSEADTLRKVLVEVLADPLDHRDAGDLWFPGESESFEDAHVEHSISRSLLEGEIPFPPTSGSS
The experiment can be described thus: ELISA, hybridoma supernatant on captured biotinylated TREM2 ECD-Fc. How it is done:
Exhausted hybridoma supernatants were tested for binding to human TREM2 by ELISA. Briefly, neutravidin plates were generated by incubating a 384 well Corning Assay Plate 3702 with neutravidin (Thermo 3100B) at 10 μg/mL (40 μL/well) in 1× PBS at 4° C. overnight. The plates were washed with 1× PBS using a Biotek plate washer and then blocked with 1% milk/1× PBS (90 μL/well) at room temperature (RT) for 30 minutes. The plates were then washed again with 1× PBS using the plate washer. […] The plates were then incubated at RT for 1 hour to immobilize the TREM2 protein to the wells of the plates. Following the incubation, the plates were again washed with 1× PBS using the plate washer. 10 μL of each hybridoma supernatant to be tested and 40 μL of 1% milk/1× PBS (1:5 dilution) were added to each well of the plates and incubated at RT for 1 hour. Again, the plates were washed with 1× PBS using the plate washer. […] After the plates were washed with 1× PBS using the plate washer, 40 μL/well of TMB substrate (Neogen, lot #150114) was added to the plates and the plates were incubated at RT for 30 minutes. The reaction was quenched with 1N hydrochloric acid (40 uL/well) following the incubation period. OD readings at 450 nm were obtained with a plate reader.

The target in experiment [6] is T1, recombinant soluble human TREM2 protein …. The experiment can be described thus: Octet BLI binning; competitor: load Ab 4C5. How it is done: as §1, §2
The target is the same in experiment [7]. Briefly: Octet BLI binning; competitor: load Ab 6E7. As for the experimental part:
as §1, §2

Experiment [8] has the same target. Briefly: Octet BLI binning; competitor: load Ab 32E3. As for the experimental part: as §1, §2
Experiment [9] has the same target. Briefly: Octet BLI binning; competitor: load Ab 10E3. How it is done:
as §1, §2

Experiment [10] has the same target. Briefly: Octet BLI binning; competitor: load Ab 26F2. How it is done: as §1, §2
The target is the same in experiment [11]. Briefly: Octet BLI binning; competitor: load Ab 26A10. How it is done: as §1, §2
Experiment [12] shares this target. The experiment can be described thus: Octet BLI binning; competitor: load Ab 4G10. How it is done: as §1, §2
For experiment [13] the target is unchanged. The experiment can be described thus: Octet BLI binning; competitor: load Ab 24G6. As for the experimental part:
as §1, §2

For experiment [14] the target is unchanged. Briefly: Octet BLI binning; competitor: load Ab 25F12. How it is done: as §1, §2
The target is the same in experiment [15]. The experiment can be described thus: Octet BLI binning; competitor: load Ab 33B12. As for the experimental part:
as §1, §2

The target is the same in experiment [16]. The experiment can be described thus: Octet BLI binning; competitor: load Ab 24F4. As for the experimental part: as §1, §2
Experiment [17] has the same target. Briefly: Octet BLI binning; competitor: load Ab 26C10. As for the experimental part:
as §1, §2

Experiment [18] shares this target. Briefly: Octet BLI binning; competitor: load Ab 5E3. How it is done: as §1, §2
Experiment [19] has as its target T2, human TREM2 on cells. The experiment can be described thus: cell-based or functional assay. This is another data set of the same source.
Experiment [20] concerns the target T1, recombinant soluble human TREM2 protein …. Briefly: Octet BLI, antibody on anti-human Fc sensor, 25 C. As for the experimental part: (§3) To quantitate the binding affinity of agonist antibodies for human TREM2, association and dissociation rate constants as well as the equilibrium dissociation constant were determined using anti-human Fc (Kinetic) sensors on an Octet® HTX instrument (Pall ForteBio). Agonist anti-TREM2 antibodies were made up in DMEM null media, 250 μL at 10 μg/mL. The, 250 uL of assay buffer (10 mM Tris (pH 7.6), 0.1% Triton X-100, 150 mM NaCl, 1mM CaCl₂, and 1 mg/mL BSA) was added to the antibody solutions to a final volume of 500 μL and final antibody concentration of 5 μg/mL. The anti-human Fc sensor was pre-incubated in 200 μL of the assay buffer for a minimum of 10 minutes. The sensor was then regenerated for 5 seconds in 10 mM glycine pH 1.5. Test agonist anti-TREM2 antibodies were loaded onto the sensor for 2 minutes, and baseline measurements were taken for 2 minutes. […] The recombinant TREM2 proteins were allowed to associate with the antibody-loaded sensor for 10 minutes, and then dissociation was measured for 10 minutes. The assay was conducted at 25° C. Experimental kinetic results were globally fit to a 1:1 binding model in order to determine the association and dissociation rate constants as well as the equilibrium dissociation constant.

Experiment [21] addresses T4, recombinant soluble cynomolgus TREM2 protein (cynomolgus TREM2 extracellular domain coupled to a Flag/His tag) (cynomolgus, UniProt A0A2K5UY34 49-204).
T4 construct: extracellular domain; also called Cyno TREM2
T4 sequence: T1 sequence with A10E, W60R, L89F, F125V
The experiment can be described thus: Octet BLI, antibody on anti-human Fc sensor, 25 C. How it is done: as §3

B1: 32E3 (antibody, human IgG2, V domains shown)
VH: EVQLVQSGAEVKKPGESLKISCKGSGYSFTSYWIGWVRQMPGKGLEWMGIIYPGDSDTRYSPSFQGQVTISADKSISTAYLQWSTLKASDTAIYYCARHDIIPAAPGAFDIWGQGTMVTVSS
VL: EFVLTQSPGTLSLSPGERATLSCRASQIISSNYLAWYQQKPGQAPRLLIYSASSRATGIPDRFSGSGSGTDFTLTISRLEPEDFAVYYCQQFDSSPITFGRGTRLDIK
notes: human IgG2 from hybridoma
With B1, the sandwich binding signal was 0.12 in experiment [1]; 0.162 in experiment [2]; -0.027 in experiment [3]; -0.016 in [6]; -0.024 in experiment [7]; -0.01 in experiment [8]. Also, the sandwich binding signal in [9] is -0.023; in [10], 0.143; in [11], 0.157; in experiment [12], -0.02; in experiment [13], 0.126; in experiment [14] it was 0.154. The sandwich binding signal was 0.132 in [15], -0.021 in [16], 0.141 in experiment [17] and 0.176 in [18]. For the same molecule, in experiment [4], the “pSyk EC50” value is 1.2 nM. In addition, the “OD 450” value in [5] stood at 1.41 OD450. In addition, the “Emax (% maximum activation compared to RnD antibody)” value in [19] came out at 197%. For the same molecule, the “pSyk EC50, differentiated THP-1 cells” value in experiment [19] is 1.25 nM.

B2: 4C5 (antibody, V domains shown)
VH: EVQLVQSGAEVKKPGESLKISCKGSGHSFTNYWIAWVRQMPGKGLEWMGIIYPGDSDTRYSPSFQGQVTISADKSISTAYLQWSSLKASDTAVYFCARQRTFYYDSSGYFDYWGQGTLVTVSS
VL: DIQMTQSPSSVSASVGDRVTITCRASQGISNWLAWYQQKPGKAPKLLIYAASSLQVGVPLRFSGSGSGTDFTLTISSLQPEDFATYYCQQADSFPRNFGQGTKLEIK
notes: human IgG2 from hybridoma
As to B2, in experiment [4], the “pSyk EC50” value came to 0.18 nM. In [5], the “OD 450” value came to 3.62 OD450. Further, the sandwich binding signal in [6] is -0.014; in experiment [8], -0.01; in [9], -0.005; in [10], 0.31; in experiment [12], -0.011; in experiment [13] it was 0.268. In experiment [14], the sandwich binding signal was 0.265. In addition, the values for the Kd in [20] and in [21] were 3.1 nM and 3.6 nM, respectively. Moreover, the “Emax (% maximum activation compared to RnD antibody)” value in experiment [19] is 265%. The “pSyk EC50, differentiated THP-1 cells” value in experiment [19] was determined as 1.72 nM.

B3: 4G10 (antibody, human IgG2, V domains shown)
VH: EVQLVQSGAEVKKPGESLKISCKGSGYSFPSYWIAWVRQMPGKGLEWMGIIYPGDSDTRYSPSFQGQVTISADKSISTAFLKWSSLKASDTAMYFCARQGIEVTGTGGLDVWGQGTTVTVSS
VL: DIQMTQSPSSLSASVGDRVTITCRASQGIRNDLGWYQQKPGNAPKRLIYAASSLPSGVPSRFSGSGSGPEFTLTISSLQPEDFATYYCLQHNSYPWTFGQGTKVEIT
notes: human IgG2 from hybridoma
Turning to B3, the “pSyk EC50” value in experiment [4] is 0.47 nM. In [5], the “OD 450” value was found to be 3.17 OD450. Moreover, the sandwich binding signal in experiment [6] is -0.018; in [8] it was -0.029; in experiment [9], -0.019; in experiment [10], 0.18; in [12], -0.026; in experiment [13] it was 0.184. In addition, in [14], the sandwich binding signal came to 0.199. Besides, the Kd in experiment [20] turned out to be 3.3 nM; in experiment [21], 1.7 nM. Moreover, the “Emax (% maximum activation compared to RnD antibody)” value in experiment [19] was found to be 236%. In experiment [19], the “pSyk EC50, differentiated THP-1 cells” value was determined as 0.579 nM.
